The values that follow come from PMC2241821, “A focused antibody library for selecting scFvs expressed at high levels in the cytoplasm” (BMC Biotechnology, 2007).

For this experiment, the target named is T1, αβ tubulin dimer (pig, UniProt P02550;P02554).
T1 construct: source: purified from pig brain
Kind of experiment: ELISA; tubulin coated on a Nunc Maxisorp 96-well plate; 5-20 μl of cytoplasmic extract of E. coli expressing the scFv; revealed with 9E10 and HRP anti-mouse IgG; also done in presence or absence of 10 mM DTT. To be noted: one partner purified.

B1: anti-tubulin scFv E12C (scFv, V domains shown)
VH: EVQLVESGGSLVKPGGSLRLSCAASGFTFSNYSMNWVRQAPGKGLEWISSISGSSRYIYYADFVKGRFTISRDNATNSLYLQMNSLRAEDTAVYYCVRSGGNTFDYWGRGTLVTVSS
VL: QSVLTQPASVSGSPGQSITISCAGTSSDVGGYNYVSWYQQHPGKAPKLMIYEDSKRPSGVSNRFSGSKSGNTASLTISGLQAEDEADYYCQQYYRKPWTFGGGTKLAVL
notes: source: E. coli BL21(DE3)pLysS cytoplasm (pET23NN); in cell extract, and purified (Ni-NTA); not shown: c-myc, C-terminal, kept
B1: the binding result is given as “binds”.

B2: anti-tubulin scFv F1C (scFv, V domains shown)
VH: EVQLVESGGSLVKPGGSLRLSCAASGFTFSNYSMNWVRQAPGKGLEWISSISGSSRYIYYADFVKGRFTISRDNATNSLYLQMNSLRAEDTAVYYCVRGNADGGENWELFDKWGRGTLVTVSS
VL: QSVLTQPASVSGSPGQSITISCAGTSSDVGGYNYVSWYQQHPGKAPKLMIYEDSKRPSGVSNRFSGSKSGNTASLTISGLQAEDEADYYCQLYQNTLWTFGGGTKLAVL
notes: as for B1
Turning to B2, the binding result is recorded as “binds”.
